Assay results published in patent publication US20230312713A1.

Assays:
[1] = molecular target: mouse CD5 on murine T cells (mouse) (UniProt P13379); assay: cell-based or functional assay
[2] = molecular target: human CD5 on human ACH2 immortalized T cells (human) (UniProt P06127); assay: cell-based or functional assay
Sequence of UniProt P06127 (P06127 25-495 limits assumed): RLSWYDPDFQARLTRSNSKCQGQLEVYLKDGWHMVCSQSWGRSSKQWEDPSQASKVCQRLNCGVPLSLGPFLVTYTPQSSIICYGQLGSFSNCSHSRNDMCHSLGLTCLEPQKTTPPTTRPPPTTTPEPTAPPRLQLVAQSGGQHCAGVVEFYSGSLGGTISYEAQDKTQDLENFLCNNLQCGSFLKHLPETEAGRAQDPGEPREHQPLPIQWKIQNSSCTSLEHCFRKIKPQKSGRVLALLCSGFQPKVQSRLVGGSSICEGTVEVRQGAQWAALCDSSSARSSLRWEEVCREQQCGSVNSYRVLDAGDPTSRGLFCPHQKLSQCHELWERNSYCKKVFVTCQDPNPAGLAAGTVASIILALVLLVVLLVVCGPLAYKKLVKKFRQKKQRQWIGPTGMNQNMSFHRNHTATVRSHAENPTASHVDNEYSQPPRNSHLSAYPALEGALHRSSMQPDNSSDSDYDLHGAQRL

Sequence of UniProt P13379 (P13379 24-494 limits assumed): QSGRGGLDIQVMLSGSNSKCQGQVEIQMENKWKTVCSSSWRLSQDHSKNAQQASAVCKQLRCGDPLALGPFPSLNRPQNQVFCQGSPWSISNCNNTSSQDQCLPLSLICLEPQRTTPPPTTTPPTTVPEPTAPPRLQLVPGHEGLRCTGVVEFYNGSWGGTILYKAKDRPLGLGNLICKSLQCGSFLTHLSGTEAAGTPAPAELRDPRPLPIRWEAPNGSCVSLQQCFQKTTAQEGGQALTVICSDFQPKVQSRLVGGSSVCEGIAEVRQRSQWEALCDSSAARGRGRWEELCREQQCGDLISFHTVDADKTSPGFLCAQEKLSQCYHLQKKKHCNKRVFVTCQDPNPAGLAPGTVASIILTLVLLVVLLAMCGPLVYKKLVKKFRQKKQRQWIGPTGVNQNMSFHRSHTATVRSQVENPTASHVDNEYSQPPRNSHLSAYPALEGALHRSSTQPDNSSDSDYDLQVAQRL

In the case of “control isotype matched IgG conjugated to LNP-mRNA (antibody)”, the percent of murine T cells receiving mRNA in vitro from IgG/LNP (flow cytometry) [1] is reported as 7%.

With “purified rat anti-mouse CD5, clone 53-7.3 (BioLegend), conjugated to LNP-mRNA (antibody)” the ZsGreen expression in CD4+ splenocytes of Ai6 mice 24 h after 30 ug CD5/LNP-Cre [1] was 81.1%, the ZsGreen expression in CD8+ splenocytes of Ai6 mice 24 h after 30 ug CD5/LNP-Cre [1] was 75.6% and the percent FAPCAR T cells in spleen 48 h after CD5/LNP-FAPCAR injection [1] was 17.5 to 24.7%. The percent of murine T cells expressing FAPCAR after 48 h in vitro with CD5/LNP-FAPCAR (flow cytometry) [1] was 83% and the percent of murine T cells expressing GFP after 48 h in vitro with CD5/LNP-GFP (flow cytometry) [1] was 78%.

Work on “mouse anti-human CD5, clone UCHT2 (BioLegend), conjugated to LNP-mRNA (antibody)” yielded a percent gene transfer (GFP) in human ACH2 T cells with CD5/LNP-GFP in vitro [2] of 89 to 93%.
